Molecular target: T1, Human C-reactive protein, pentameric (pCRP) (human), P02741
T1 chain: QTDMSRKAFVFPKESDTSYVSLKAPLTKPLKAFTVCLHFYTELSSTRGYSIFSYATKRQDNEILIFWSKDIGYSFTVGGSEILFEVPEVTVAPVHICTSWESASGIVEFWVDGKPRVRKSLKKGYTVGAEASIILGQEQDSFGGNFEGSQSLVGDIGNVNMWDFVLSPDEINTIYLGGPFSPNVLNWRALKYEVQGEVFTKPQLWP
Experiment: crystal structure; pCRP at 8 mg/ml in 20 mM Tris, 140 mM NaCl, 2 mM CaCl2, co-crystallised with C10M (1:3 molar ratio pCRP:C10M); hanging drop at 20°C; well buffer 100 mM Tris pH 9, 10% PEG 4000, 50 mM LiCl, 200 mM MgCl2; oligomer seen: pentamer
Conditions: remark: other sources report otherwise

stoichiometry N: 5
B1: Human C-reactive protein, pentameric (pCRP), P02741 19-224 (natural protein)
chain: T1 chain
